Data as given in patent US20210380680A1 (ZLLP, published 2021).
Like-named read-outs stand apart in the source and are kept apart here. Blank lines part the entries; values can stand above or below the binder they belong to.

Experiments:
[1] = biological target: T1, human Claudin 18.2 (CLDN18.2) (human, UniProt P56856-2 1-261); test: FACS on CHO-CLDN18.2 cells
T1 construct: whole, on cells; recombinantly expressed on CHO, HEK293, NCI-N87, NUGC4 or PANC-1 cells; also called CHO-CLDN18.2

[2] = biological target: T2, CLDN18.2 endogenously expressed on SNU601 gastric cancer cells (UniProt P56856-2 1-261); test: FACS on SNU601 cells
T2 construct: whole, on cells

[3] = biological target: T1, human Claudin 18.2 (CLDN18.2); test: FACS on CHO-18.2 cells @30 ug/ml
[4] = biological target: T1, human Claudin 18.2 (CLDN18.2); test: cell-based or functional assay
[5] = biological target: T1, human Claudin 18.2 (CLDN18.2); test: cell-based or functional assay; remark: listed apart in the source
[6] = biological target: T1, human Claudin 18.2 (CLDN18.2); test: cell-based or functional assay; remark: listed apart in the source
[7] = biological target: T1, human Claudin 18.2 (CLDN18.2); test: cell-based or functional assay; remark: listed apart in the source
[8] = biological target: T1, human Claudin 18.2 (CLDN18.2); test: cell-based or functional assay; remark: listed apart in the source
[9] = biological target: T1, human Claudin 18.2 (CLDN18.2); test: FACS on CHO-CLDN18.2 cells; remark: listed apart in the source
[10] = biological target: T3, CLDN18.2 endogenously expressed on SNU620 gastric cancer cells (UniProt P56856-2 1-261, limits assumed); test: FACS on SNU620 cells
T3 construct: whole, on cells; also called SU620

B1: chimeric 282A12F3 (xi282A12F3) (antibody, human IgG1, kappa, V domains shown)
VH: QVQLKESGPVLVQPSQTLSLTCTVAGFSLTSYNVYWVRQPPGKGLEWMGVIWNTGATRYNSTLKSRLSISKDTSKSQVFLKMNSLQTEDTATYYCARDSAMPAIPFAYWGQGTLVTVSS
VL: DIVMTQSPSSLAVSAGETVTINCKSSQSLFGSVRQKNYLAWYQQKPGQSPKLLIYLASTRESGVPDRFIGSGSGTDFTLTISSVQAEDLAKYYCQQYYDIPWTFGGGTKLELKR
notes: chimeric human IgG1
binding result [1]: binds

B2: 282A12F3 (rat hybridoma antibody) (antibody, V domains shown)
VH: B1 VH
VL: DIVMTQSPSSLAVSAGETVTINCKSSQSLFGSVRQKNYLAWYQQKPGQSPKLLIYLASTRESGVPDRFIGSGSGTDFTLTISSVQAEDLAKYYCQQYYDIPWTFGGGTKLELK
notes: purified rat IgG from hybridoma
binding result [2]: binds
binding result [3]: binds

B4: 413H9F8-cp2-V2-DL (antibody, V domains shown)
VH: DVQLVESGGGLVQPGGSLRLSCAASGFTFSSFGMHWVRQAPGKGLEWVAYISSGSSPIYYVDKLKGRFTISRDNAKNSLYLQMNSLRAEDTAVYYCARAGYAVRNALDYWGQGTLVTVSS
VL: EIVMTQSPPTLSLSPGERVTLSCKSSQSLLNVGNQKNYLAWYQQKPGQAPRLLIYGASTRESGIPARFSGSGSGTDFTLTISSLQPEDFAVYYCQNDLFYPLTFGGGTKVEIK
ADCC EC50, CHO-CLDN18.2, FcR-TANK [6]: 0.001 nM
ADCC EC50, NUGC4-CLDN18.2, PBMC [7]: 0.0146 nM

B5: 413H9F8-cp2-MG-DL (antibody, V domains shown)
VH: B4 VH
VL: B4 VL
ADCC EC50, CHO-CLDN18.2, FcR-TANK [6]: 0.0024 nM
ADCC EC50, NUGC4-CLDN18.2, PBMC [7]: 0.0175 nM

Continued, in another order:

% ADCC @ 6.67 nM, NCI-N87-CLDN18.2, FcR-TANK [4]: 13.2%
ADCC EC50, NCI-N87-CLDN18.2, FcR-TANK [4]: 0.24 nM
ADCC EC50, NUGC4-CLDN18.2, PBMC [5]: 5.3 nM
ADCC EC50, CHO-CLDN18.2, FcR-TANK [6]: 0.008 nM
ADCC EC50, NUGC4-CLDN18.2, PBMC [7]: 0.0492 nM
CDC EC50, human serum, CHO-CLDN18.2 [8]: 1.13 nM
EC50 [9]: 1.99 nM
B3: 413H9F8-cp2 (antibody, V domains shown)
VH: B4 VH
VL: B4 VL
notes: humanized IgG; constant regions not specified
% specific cytotoxicity @ 6.67 nM, NUGC4-CLDN18.2, PBMC [5]: 32%

binding result [10]: no binding
B6: chimeric 357B8F8 (antibody, human IgG1, kappa, V domains shown)
VH: QVQLKESGPGLVAPSQSLSITCTVSGFSLTSYGVHWVRQPPGKGLEWLGVIWPGGNTNYNSALMSRLSISKDNSKSQVFLKMNSLQTDDTAMYYCARDRRLAMDYWGQGTSVTVSS
VL: DIVMTQSPSSLTVTAGEKVTMTCKSSQSLLNSGNQKNYLTWYQQKPGQPPKLLIYWASTRESGVPDRFTGSGSGTDFTLTISILQAEDLAVYYCQNDYSYPFTFGSGTKLEIKR
notes: chimeric human IgG1
